This assay addresses T1, Factor IXa (UniProt P00740 47-191; P00740 227-461).
T1 construct: also called FIXa
As to the kind of experiment: functional Kd from intrinsic Xase FXa-generation assay; 0.25 nM FVIIIa, 0-20 nM FIXa, 200 nM FX, 20 uM phospholipids. The method, then:
Kinetic analysis of FXa generation was performed by an intrinsic Xase assay, as described with modifications (Wilhelm, et al. (2021) Blood 137:2532-2543; Lollar, et al. (1989) Biochemistry 28 (2): 666-674). Activated FVIII (FVIIIa) was generated by incubating 25 nM FVIII with 100 nM thrombin for 30 seconds and thereafter quenched with hirudin (150 nM). […] At various time intervals (0.25-2 minutes), aliquots of the reaction mixture were quenched in 20 mM HEPES, 150 mM NaCl, 25 mM EDTA, 0.1% polyethylene glycol-8000, pH 7.4. The amount of FXa in each quenched sample was assessed using Spectrozyme® Xa by measuring absorbance at 405 nm in SpectraMax® 190 Microplate reader (Molecular Devices) and comparing the results to a prepared FXa standard curve.
TABLE 1 Biochemical Characterization of FVIII Proteins. Specific activity was determined by an aPTT based clotting assay measurement of clotting activity relative to protein concentration. Kinetic values were determined for FX activation by an intrinsic Xase assay using equimolar FVIIIa and FIXa (0.25 nM) 0.25 nM FVIIIa, 0.25 nM or 0-20 nM FIXa and 0-500 nM FX in the presence of 20 μM phospholipids. […] Data are represented as means ± SEM from at least two independent experiments.

T1 sequence (P00740 47-191 limits assumed, form in doubt, chain 1 of 2): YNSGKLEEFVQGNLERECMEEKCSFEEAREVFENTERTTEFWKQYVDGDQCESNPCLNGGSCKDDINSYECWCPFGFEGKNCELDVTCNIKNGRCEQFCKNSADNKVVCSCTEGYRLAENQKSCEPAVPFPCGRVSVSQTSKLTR
T1 sequence (P00740 227-461 limits assumed, form in doubt, chain 2 of 2): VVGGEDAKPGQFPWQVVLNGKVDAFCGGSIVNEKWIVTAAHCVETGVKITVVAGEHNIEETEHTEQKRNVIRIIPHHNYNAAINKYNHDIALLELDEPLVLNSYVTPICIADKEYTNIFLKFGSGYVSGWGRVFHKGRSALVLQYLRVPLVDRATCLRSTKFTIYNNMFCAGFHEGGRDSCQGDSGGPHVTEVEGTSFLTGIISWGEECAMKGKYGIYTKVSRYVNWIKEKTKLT

B1: FVIIIa-QQVV (thrombin-activated B-domain deleted FVIII R336Q/R562Q/D519V/E665V) (other)
chain 1: ATRRYYLGAVELSWDYMQSDLGELPVDARFPPRVPKSFPFNTSVVYKKTLFVEFTDHLFNIAKPRPPWMGLLGPTIQAEVYDTVVITLKNMASHPVSLHAVGVSYWKASEGAEYDDQTSQREKEDDKVFPGGSHTYVWQVLKENGPMASDPLCLTYSYLSHVDLVKDLNSGLIGALLVCREGSLAKEKTQTLHKFILLFAVFDEGKSWHSETKNSLMQDRDAASARAWPKMHTVNGYVNRSLPGLIGCHRKSVYWHVIGMGTTPEVHSIFLEGHTFLVRNHRQASLEISPITFLTAQTLLMDLGQFLLFCHISSHQHDGMEAYVKVDSCPEEPQLQMKNNEEAEDYDDDLTDSEMDVVRFDDDNSPSFIQIR
chain 2: SVAKKHPKTWVHYIAAEEEDWDYAPLVLAPDDRSYKSQYLNNGPQRIGRKYKKVRFMAYTDETFKTREAIQHESGILGPLLYGEVGDTLLIIFKNQASRPYNIYPHGITDVRPLYSRRLPKGVKHLKDFPILPGEIFKYKWTVTVEVGPTKSDPRCLTRYYSSFVNMERDLASGLIGPLLICYKESVDQQGNQIMSDKRNVILFSVFDENRSWYLTENIQRFLPNPAGVQLEDPEFQASNIMHSINGYVFDSLQLSVCLHEVAYWYILSIGAQTDFLSVFFSGYTFKHKMVYVDTLTLFPFSGETVFMSMENPGLWILGCHNSDFRNRGMTALLKVSSCDKNTGDYYEDSYEDISAYLLSKNNAIEPR
chain 3: SFQKKTRHYFIAAVERLWDYGMSSSPHVLRNRAQSGSVPQFKKVVFQEFTDGSFTQPLYRGELNEHLGLLGPYIRAEVEDNIMVTFRNQASRPYSFYSSLISYEEDQRQGAEPRKNFVKPNETKTYFWKVQHHMAPTKDEFDCKAWAYFSDVDLEKDVHSGLIGPLLVCHTNTLNPAHGRQVTVQEFALFFTIFDETKSWYFTENMERNCRAPCNIQMEDPTFKENYRFHAINGYIMDTLPGLVMAQDQRIRWYLLSMGSNENIHSIHFSGHVFTVRKKEEYKMALYNLYPGVFETVEMLPSKAGIWRVECLIGEHLHAGMSTLFLVYSNKCQTPLGMASGHIRDFQITASGQYGQWAPKLARLHYSGSINAWSTKEPFSWIKVDLLAPMIIHGIKTQGARQKFSSLYISQFIIMYSLDGKKWQTYRGNSTGTLMVFFGNVDSSGIKHNIFNPPIIARYIRLHPTHYSIRSTLRMELMGCDLNSCSMPLGMESKAISDAQITASSYFTNMFATWSPSKARLHLQGRSNAWRPQVNNPKEWLQVDFQKTMKVTGVTTQGVKSLLTSMYVKEFLISSSQDGHQWTLFFQNGKVKVFQGNQDSFTPVVNSLDPPLLTRYLRIHPQSWVHQIALRMEVLGCEAQDLY
notes: also called FVIII-QQVV; FVIII-QQ/VV
With B1, the Kd (commonly the concentration at which binding is half-saturated) came to 1.2 nM.

B2: FVIIIa-VV (thrombin-activated B-domain deleted FVIII D519V/E665V) (other)
chain 1: ATRRYYLGAVELSWDYMQSDLGELPVDARFPPRVPKSFPFNTSVVYKKTLFVEFTDHLFNIAKPRPPWMGLLGPTIQAEVYDTVVITLKNMASHPVSLHAVGVSYWKASEGAEYDDQTSQREKEDDKVFPGGSHTYVWQVLKENGPMASDPLCLTYSYLSHVDLVKDLNSGLIGALLVCREGSLAKEKTQTLHKFILLFAVFDEGKSWHSETKNSLMQDRDAASARAWPKMHTVNGYVNRSLPGLIGCHRKSVYWHVIGMGTTPEVHSIFLEGHTFLVRNHRQASLEISPITFLTAQTLLMDLGQFLLFCHISSHQHDGMEAYVKVDSCPEEPQLRMKNNEEAEDYDDDLTDSEMDVVRFDDDNSPSFIQIR
chain 2: SVAKKHPKTWVHYIAAEEEDWDYAPLVLAPDDRSYKSQYLNNGPQRIGRKYKKVRFMAYTDETFKTREAIQHESGILGPLLYGEVGDTLLIIFKNQASRPYNIYPHGITDVRPLYSRRLPKGVKHLKDFPILPGEIFKYKWTVTVEVGPTKSDPRCLTRYYSSFVNMERDLASGLIGPLLICYKESVDQRGNQIMSDKRNVILFSVFDENRSWYLTENIQRFLPNPAGVQLEDPEFQASNIMHSINGYVFDSLQLSVCLHEVAYWYILSIGAQTDFLSVFFSGYTFKHKMVYVDTLTLFPFSGETVFMSMENPGLWILGCHNSDFRNRGMTALLKVSSCDKNTGDYYEDSYEDISAYLLSKNNAIEPR
chain 3: SFQKKTRHYFIAAVERLWDYGMSSSPHVLRNRAQSGSVPQFKKVVFQEFTDGSFTQPLYRGELNEHLGLLGPYIRAEVEDNIMVTFRNQASRPYSFYSSLISYEEDQRQGAEPRKNFVKPNETKTYFWKVQHHMAPTKDEFDCKAWAYFSDVDLEKDVHSGLIGPLLVCHTNTLNPAHGRQVTVQEFALFFTIFDETKSWYFTENMERNCRAPCNIQMEDPTFKENYRFHAINGYIMDTLPGLVMAQDQRIRWYLLSMGSNENIHSIHFSGHVFTVRKKEEYKMALYNLYPGVFETVEMLPSKAGIWRVECLIGEHLHAGMSTLFLVYSNKCQTPLGMASGHIRDFQITASGQYGQWAPKLARLHYSGSINAWSTKEPFSWIKVDLLAPMIIHGIKTQGARQKFSSLYISQFIIMYSLDGKKWQTYRGNSTGTLMVFFGNVDSSGIKHNIFNPPIIARYIRLHPTHYSIRSTLRMELMGCDLNSCSMPLGMESKAISDAQITASSYFTNMFATWSPSKARLHLQGRSNAWRPQVNNPKEWLQVDFQKTMKVTGVTTQGVKSLLTSMYVKEFLISSSQDGHQWTLFFQNGKVKVFQGNQDSFTPVVNSLDPPLLTRYLRIHPQSWVHQIALRMEVLGCEAQDLY
notes: also called FVIII-VV
On to B2, for which binding was characterised by a dissociation constant (Kd) of 1.6 nM.

Source of the values: patent publication US20250250322A1 (CHILDREN S HOSPITAL OF PHILADELPHIA, published 2025).
